Measurements as given in US20250218531A1 (ABSCI, published 2025).
Where a chain is given by its changes, count along the chain named. Several values for one entry are separate records, joined by “and”; a condition that tells them apart may be missing. Equal values may be shown once.

B1: Trastuzumab HCDR3 variant ARDGGMYRYGLYG (Fab, V domains shown)
VH: EVQLVESGGGLVQPGGSLRLSCAASGFNIKDTYIHWVRQAPGKGLEWVARIYPTNGYTRYADSVKGRFTISADTSKNTAYLQMNSLRAEDTAVYYCARDGGMYRYGLYGWGQGTLVTVSS
VL: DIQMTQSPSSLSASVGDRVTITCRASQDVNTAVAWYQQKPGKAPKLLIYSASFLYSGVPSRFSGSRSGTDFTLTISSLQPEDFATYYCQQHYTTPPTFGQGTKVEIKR
B2: Trastuzumab HCDR3 variant ARFGPAYFYGFYY (Fab, V domains shown)
VH: B1 VH with D99F, G101P, M102A, R104F, L107F, G109Y
VL: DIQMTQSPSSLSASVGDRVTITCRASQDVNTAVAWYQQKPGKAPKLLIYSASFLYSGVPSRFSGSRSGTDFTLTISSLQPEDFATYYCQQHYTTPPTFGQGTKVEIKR
B3: Trastuzumab HCDR3 variant ARSGYPGYGSFAY (Fab, V domains shown)
VH: B1 VH with D99S, G101Y, M102P, Y103G, R104Y, Y105G, G106S, L107F, Y108A, G109Y
VL: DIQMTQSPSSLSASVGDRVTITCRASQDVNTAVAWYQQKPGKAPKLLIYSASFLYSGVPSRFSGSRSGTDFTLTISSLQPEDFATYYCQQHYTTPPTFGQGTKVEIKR
B4: Trastuzumab HCDR3 variant ARYGAYSSYYFGY (Fab, V domains shown)
VH: B1 VH with D99Y, G101A, M102Y, Y103S, R104S, G106Y, L107F, Y108G, G109Y
VL: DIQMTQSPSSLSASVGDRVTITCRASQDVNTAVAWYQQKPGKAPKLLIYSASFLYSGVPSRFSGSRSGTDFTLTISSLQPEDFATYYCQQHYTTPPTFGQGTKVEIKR
B5: Trastuzumab HCDR3 variant ARWQGRSGYYMDY (Fab, V domains shown)
VH: B1 VH with D99W, G100Q, M102R, Y103S, R104G, G106Y, L107M, Y108D, G109Y
VL: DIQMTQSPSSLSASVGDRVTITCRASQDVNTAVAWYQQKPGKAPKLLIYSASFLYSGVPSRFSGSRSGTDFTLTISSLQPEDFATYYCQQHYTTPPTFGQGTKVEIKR
B6: Trastuzumab HCDR3 variant AQNWDRGSYFYTY (Fab, V domains shown)
VH: EVQLVESGGGLVQPGGSLRLSCAASGFNIKDTYIHWVRQAPGKGLEWVARIYPTNGYTRYADSVKGRFTISADTSKNTAYLQMNSLRAEDTAVYYCAQNWDRGSYFYTYWGQGTLVTVSS
VL: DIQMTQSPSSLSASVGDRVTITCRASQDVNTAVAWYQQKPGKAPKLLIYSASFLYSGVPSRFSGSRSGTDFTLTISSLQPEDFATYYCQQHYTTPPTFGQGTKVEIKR
B7: Trastuzumab HCDR3 variant ARWEGYGSYEFAY (Fab, V domains shown)
VH: B6 VH with Q98R, N99W, W100E, D101G, R102Y, F106E, Y107F, T108A
VL: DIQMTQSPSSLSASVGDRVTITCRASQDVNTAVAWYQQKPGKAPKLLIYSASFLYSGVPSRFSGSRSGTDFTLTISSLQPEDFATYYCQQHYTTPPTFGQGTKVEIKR
B8: Trastuzumab HCDR3 variant ARWARGAGYYWDY (Fab, V domains shown)
VH: B6 VH with Q98R, N99W, W100A, D101R, R102G, G103A, S104G, F106Y, Y107W, T108D
VL: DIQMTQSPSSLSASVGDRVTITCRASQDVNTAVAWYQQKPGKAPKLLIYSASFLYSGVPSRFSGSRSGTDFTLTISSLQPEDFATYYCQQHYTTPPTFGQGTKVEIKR
B9: Trastuzumab HCDR3 variant ARAGGTSISLGHG (Fab, V domains shown)
VH: B1 VH with D99A, M102T, Y103S, R104I, Y105S, G106L, L107G, Y108H
VL: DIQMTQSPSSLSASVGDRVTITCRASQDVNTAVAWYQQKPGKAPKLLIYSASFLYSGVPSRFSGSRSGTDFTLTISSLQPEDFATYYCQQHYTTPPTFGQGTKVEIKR
B10: Trastuzumab HCDR3 variant ARWPPYYWWAFDY (Fab, V domains shown)
VH: B1 VH with D99W, G100P, G101P, M102Y, R104W, Y105W, G106A, L107F, Y108D, G109Y
VL: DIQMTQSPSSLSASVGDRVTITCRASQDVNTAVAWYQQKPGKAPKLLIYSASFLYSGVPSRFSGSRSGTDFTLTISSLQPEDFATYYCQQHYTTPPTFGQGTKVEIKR
B11: Trastuzumab HCDR3 variant ARDSPYYGSLYLY (Fab, V domains shown)
VH: B1 VH with G100S, G101P, M102Y, R104G, Y105S, G106L, L107Y, Y108L, G109Y
VL: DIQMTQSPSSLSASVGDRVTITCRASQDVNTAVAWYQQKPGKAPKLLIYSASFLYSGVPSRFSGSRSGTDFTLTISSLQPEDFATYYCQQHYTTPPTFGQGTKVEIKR
B12: Trastuzumab HCDR3 variant ARDGYPQYGGYGY (Fab, V domains shown)
VH: B1 VH with G101Y, M102P, Y103Q, R104Y, Y105G, L107Y, Y108G, G109Y
VL: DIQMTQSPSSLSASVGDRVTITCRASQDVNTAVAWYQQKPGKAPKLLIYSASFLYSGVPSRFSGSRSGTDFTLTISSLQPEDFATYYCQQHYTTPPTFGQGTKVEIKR
B13: Trastuzumab HCDR3 variant ARTTSSIPSSFDY (Fab, V domains shown)
VH: EVQLVESGGGLVQPGGSLRLSCAASGFNIKDTYIHWVRQAPGKGLEWVARIYPTNGYTRYADSVKGRFTISADTSKNTAYLQMNSLRAEDTAVYYCARTTSSIPSSFDYWGQGTLVTVSS
VL: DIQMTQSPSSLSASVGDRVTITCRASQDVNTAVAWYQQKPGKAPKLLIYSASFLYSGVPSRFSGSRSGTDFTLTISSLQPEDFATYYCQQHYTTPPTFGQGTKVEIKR
B14: Trastuzumab HCDR3 variant ARSYAFLYGRMDY (Fab, V domains shown)
VH: B13 VH with T99S, T100Y, S101A, S102F, I103L, P104Y, S105G, S106R, F107M
VL: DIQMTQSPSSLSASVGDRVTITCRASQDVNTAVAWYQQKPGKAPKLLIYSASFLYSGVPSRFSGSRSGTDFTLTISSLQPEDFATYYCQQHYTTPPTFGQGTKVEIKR
B15: Trastuzumab HCDR3 variant ARWLRGLGYYWDY (Fab, V domains shown)
VH: B13 VH with T99W, T100L, S101R, S102G, I103L, P104G, S105Y, S106Y, F107W
VL: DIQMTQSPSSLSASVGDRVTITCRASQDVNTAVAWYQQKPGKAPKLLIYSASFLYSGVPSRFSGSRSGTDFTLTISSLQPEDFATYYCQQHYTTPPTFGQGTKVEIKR
B16: Trastuzumab HCDR3 variant ARWYGLGSYGLTY (Fab, V domains shown)
VH: B6 VH with Q98R, N99W, W100Y, D101G, R102L, F106G, Y107L
VL: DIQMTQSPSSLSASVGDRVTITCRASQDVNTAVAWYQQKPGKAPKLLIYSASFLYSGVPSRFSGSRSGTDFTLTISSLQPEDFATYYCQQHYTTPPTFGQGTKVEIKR
B17: Trastuzumab HCDR3 variant ARGHYSLGYSFDF (Fab, V domains shown)
VH: B13 VH with T99G, T100H, S101Y, I103L, P104G, S105Y, Y109F
VL: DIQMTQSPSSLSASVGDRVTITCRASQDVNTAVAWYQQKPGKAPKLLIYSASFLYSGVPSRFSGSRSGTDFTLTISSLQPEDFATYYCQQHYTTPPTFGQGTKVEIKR
B18: Trastuzumab HCDR3 variant ARWERYGYYVLDV (Fab, V domains shown)
VH: B1 VH with D99W, G100E, G101R, M102Y, Y103G, R104Y, G106V, Y108D, G109V
VL: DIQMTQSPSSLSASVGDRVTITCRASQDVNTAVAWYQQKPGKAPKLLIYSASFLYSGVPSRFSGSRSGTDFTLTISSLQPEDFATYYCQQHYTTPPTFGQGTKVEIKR
B19: Trastuzumab HCDR3 variant ARWGGFGYYYFDY (Fab, V domains shown)
VH: B1 VH with D99W, M102F, Y103G, R104Y, G106Y, L107F, Y108D, G109Y
VL: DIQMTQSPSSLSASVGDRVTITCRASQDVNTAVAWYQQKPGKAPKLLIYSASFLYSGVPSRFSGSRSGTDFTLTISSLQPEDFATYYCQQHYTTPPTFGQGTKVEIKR
B20: Trastuzumab HCDR3 variant ARHYDYGRYYMDV (Fab, V domains shown)
VH: B6 VH with Q98R, N99H, W100Y, R102Y, S104R, F106Y, Y107M, T108D, Y109V
VL: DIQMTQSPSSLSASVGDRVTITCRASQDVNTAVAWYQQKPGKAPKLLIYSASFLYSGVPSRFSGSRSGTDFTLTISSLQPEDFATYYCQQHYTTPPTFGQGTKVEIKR
B21: Trastuzumab HCDR3 variant ARYGARSGYAYEY (Fab, V domains shown)
VH: B6 VH with Q98R, N99Y, W100G, D101A, G103S, S104G, F106A, T108E
VL: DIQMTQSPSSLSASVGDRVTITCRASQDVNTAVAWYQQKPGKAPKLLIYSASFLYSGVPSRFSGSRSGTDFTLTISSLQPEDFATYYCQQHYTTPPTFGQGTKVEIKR
B22: Trastuzumab HCDR3 variant ARSYAYLYGSWDY (Fab, V domains shown)
VH: B13 VH with T99S, T100Y, S101A, S102Y, I103L, P104Y, S105G, F107W
VL: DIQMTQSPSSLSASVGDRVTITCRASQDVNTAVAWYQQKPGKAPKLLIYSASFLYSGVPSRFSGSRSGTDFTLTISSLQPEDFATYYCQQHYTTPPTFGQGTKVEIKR
B23: Trastuzumab HCDR3 variant ARWWYGGRNYFDI (Fab, V domains shown)
VH: B13 VH with T99W, T100W, S101Y, S102G, I103G, P104R, S105N, S106Y, Y109I
VL: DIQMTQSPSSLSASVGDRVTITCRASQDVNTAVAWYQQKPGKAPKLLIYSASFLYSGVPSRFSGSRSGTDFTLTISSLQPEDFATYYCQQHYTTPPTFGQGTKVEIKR
B24: Trastuzumab HCDR3 variant ARGYYQDSQSWGY (Fab, V domains shown)
VH: B13 VH with T99G, T100Y, S101Y, S102Q, I103D, P104S, S105Q, F107W, D108G
VL: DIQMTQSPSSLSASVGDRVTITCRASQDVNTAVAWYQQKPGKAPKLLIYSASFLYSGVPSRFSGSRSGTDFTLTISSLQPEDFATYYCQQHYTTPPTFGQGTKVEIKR
B25: Trastuzumab HCDR3 variant ARWGYGYYYSFDY (Fab, V domains shown)
VH: B13 VH with T99W, T100G, S101Y, S102G, I103Y, P104Y, S105Y
VL: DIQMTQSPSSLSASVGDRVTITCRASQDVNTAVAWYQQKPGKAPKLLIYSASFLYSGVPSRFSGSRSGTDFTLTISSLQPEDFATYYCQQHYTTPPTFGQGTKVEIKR
B26: Trastuzumab HCDR3 variant ARTVVGWYGRFDY (Fab, V domains shown)
VH: B13 VH with T100V, S101V, S102G, I103W, P104Y, S105G, S106R
VL: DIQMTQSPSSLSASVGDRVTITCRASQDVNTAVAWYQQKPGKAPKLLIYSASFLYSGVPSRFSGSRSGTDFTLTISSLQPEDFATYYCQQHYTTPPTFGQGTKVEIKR

These binders were tested against human epidermal growth factor receptor 2 (HER2) extracellular domain (human, UniProt P04626 23-629) (assay: SPR).

Row | Binder | Kd | log(KD (M))
1 | B1 | 231 nM | -6.64 log(M)
2 | B2 | 50.9 nM | -7.29 log(M)
3 | B3 | 60.7 nM | -7.22 log(M)
4 | B4 | 28 nM | -7.55 log(M)
5 | B5 | 48.3 nM | -7.32 log(M)
6 | B6 | 43.1 nM and 43 nM | -7.37 log(M)
7 | B7 | 42.5 nM | -7.37 log(M)
8 | B8 | 89.6 nM | -7.05 log(M)
9 | B9 | 67 nM | -7.17 log(M)
10 | B10 | 65.6 nM | -7.18 log(M)
11 | B11 | 205 nM | -6.69 log(M)
12 | B12 | 127 nM | -6.9 log(M)
13 | B13 | 149 nM | -6.83 log(M)
14 | B14 | 189 nM and 188 nM | -6.72 log(M)
15 | B15 | 40.1 nM | -7.4 log(M)
16 | B16 | 223 nM | -6.65 log(M)
17 | B17 | 256 nM | -6.59 log(M)
18 | B18 | 27.9 nM | -7.55 log(M)
19 | B19 | 31 nM | -7.51 log(M)
20 | B20 | 30.9 nM | -7.51 log(M)
21 | B21 | 45.1 nM | -7.35 log(M)
22 | B22 | 102 nM | -6.99 log(M)
23 | B23 | 116 nM | -6.94 log(M)
24 | B24 | 166 nM | -6.78 log(M)
25 | B25 | 38 nM | -7.42 log(M)
26 | B26 | 63.6 nM | -7.2 log(M)
